Kd, time to 50% of the signal after addition of 10 mM EGTA and contrast of signal between R-R and B-R cell adhesion sites data for two substances are collected here from PMC9546846.

Usually Kd stands for the free concentration of one partner at which half of the binding sites on the other are occupied at equilibrium, for simple one-to-one binding.

One assay has as its target N-cadherin (UniProt P15116). The settings on record: cited from earlier work.
Assay [1] addresses ddFP-B1-inserted NCad (NCad-B1) (mouse) (UniProt P15116). The experiment in a line: split reporter (BiFC, NanoBiT); dimerization-dependent fluorescent protein; time-lapse of HEK293T cells each expressing one component, from seeding for 120 min, then 10 mM EGTA for 120 min; washout of EGTA in a further experiment.
The target in assay [2] is ddFP-B3-inserted NCad (NCad-B3) (mouse) (UniProt P15116). Described as above.
Assay [3] concerns the target ddFP-B1-inserted NCad (NCad-B1) (mouse) (UniProt P15116). The experiment in a line: split reporter (BiFC, NanoBiT); dimerization-dependent fluorescent protein; HEK293T cells co-expressing both components (mCherry-NLS) co-cultured with cells expressing NCad without fluorescent protein (EBFP2-NLS); signal at R-R against B-R cell adhesion sites.
The target in assay [4] is ddFP-B3-inserted NCad (NCad-B3) (mouse) (UniProt P15116). The assay is described as above.

N-cadherin, sequence (P15116 160-724): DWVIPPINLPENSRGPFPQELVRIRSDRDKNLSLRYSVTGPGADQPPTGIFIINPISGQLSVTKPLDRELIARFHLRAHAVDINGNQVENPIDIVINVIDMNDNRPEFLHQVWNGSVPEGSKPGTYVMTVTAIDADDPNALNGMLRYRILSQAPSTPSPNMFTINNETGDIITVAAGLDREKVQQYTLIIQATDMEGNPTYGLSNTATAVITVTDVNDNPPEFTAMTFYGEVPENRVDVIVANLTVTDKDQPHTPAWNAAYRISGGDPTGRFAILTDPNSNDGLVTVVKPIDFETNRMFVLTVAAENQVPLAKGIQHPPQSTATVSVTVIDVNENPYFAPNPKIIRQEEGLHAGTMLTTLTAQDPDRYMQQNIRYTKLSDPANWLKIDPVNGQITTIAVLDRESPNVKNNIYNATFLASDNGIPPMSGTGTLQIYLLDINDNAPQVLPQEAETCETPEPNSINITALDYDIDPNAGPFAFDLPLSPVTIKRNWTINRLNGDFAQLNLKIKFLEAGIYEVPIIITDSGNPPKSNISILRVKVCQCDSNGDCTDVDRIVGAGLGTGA

For the substance N-cadherin (from UniProt P15116), in the assay with N-cadherin, the Kd is 25 µM.

Turning to “ddGFP-A-inserted NCad (NCad-GA) (from UniProt P15116 26-311; P15116 312-906)”, the time to 50% of the signal after addition of 10 mM EGTA in assay [1] and in assay [2] was 50 min throughout. Besides, the contrast of signal between R-R and B-R cell adhesion sites in assay [3] was determined as 5.31; in assay [4], 7.72.
